Laboratory results from paper PMC11574208, “Mechanistic basis of atypical TERT promoter mutations”.

Experiments:
Settings in all cases: protein: recombinant;recombinant; tags: ;N-terminal His; copies: 1;1; label: 5'-32P on forward (C-rich) strand; blunt
[1] = target: T1, GABPA (GABP alpha);GABPB (GABP beta1L) (human?;human?, UniProt Q06546;Q06547 1-454;1-395, |); assay: DNase I footprinting; 5 uM GABP; bound via native site, not at the unmutated proto-sites; 20 mM Tris-Cl pH 7.5, 5% glycerol, 5.2 mM MgCl2, 50 mM KCl, 1 mM TCEP, 20 nM oligo, 1 h room temperature; EMSA on 4% native PAGE, 0.5x TBE, 4 C
T1 sequence (Q06546 whole entry, chain 1 of 2): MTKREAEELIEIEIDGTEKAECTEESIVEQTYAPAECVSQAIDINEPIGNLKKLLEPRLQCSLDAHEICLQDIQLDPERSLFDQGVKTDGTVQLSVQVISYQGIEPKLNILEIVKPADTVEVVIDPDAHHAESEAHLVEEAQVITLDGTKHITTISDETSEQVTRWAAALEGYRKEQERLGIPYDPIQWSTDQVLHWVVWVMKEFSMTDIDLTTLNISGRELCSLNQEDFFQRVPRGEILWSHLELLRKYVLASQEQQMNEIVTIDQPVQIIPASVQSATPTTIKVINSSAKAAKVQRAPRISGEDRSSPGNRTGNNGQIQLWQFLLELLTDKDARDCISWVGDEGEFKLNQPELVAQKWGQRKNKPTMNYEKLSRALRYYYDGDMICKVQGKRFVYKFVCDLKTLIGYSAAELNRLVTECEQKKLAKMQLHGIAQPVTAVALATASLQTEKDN
T1 sequence (Q06547 whole entry, chain 2 of 2): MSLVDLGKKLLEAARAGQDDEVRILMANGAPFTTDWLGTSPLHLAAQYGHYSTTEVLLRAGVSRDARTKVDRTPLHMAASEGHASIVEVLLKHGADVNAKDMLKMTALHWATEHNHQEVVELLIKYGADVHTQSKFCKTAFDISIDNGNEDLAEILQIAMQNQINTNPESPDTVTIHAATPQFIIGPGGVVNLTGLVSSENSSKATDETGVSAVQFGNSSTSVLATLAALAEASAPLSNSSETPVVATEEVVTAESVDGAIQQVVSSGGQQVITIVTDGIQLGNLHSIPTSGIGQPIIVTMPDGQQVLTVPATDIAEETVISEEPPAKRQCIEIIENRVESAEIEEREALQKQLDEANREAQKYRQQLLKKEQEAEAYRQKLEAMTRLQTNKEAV

[2] = target: T1, GABPA (GABP alpha);GABPB (GABP beta1L); assay: DNase I footprinting; 5 uM GABP; -124 de novo site and native site; 20 mM Tris-Cl pH 7.5, 5% glycerol, 5.2 mM MgCl2, 50 mM KCl, 1 mM TCEP, 20 nM oligo, 1 h room temperature; EMSA on 4% native PAGE, 0.5x TBE, 4 C
[3] = target: T1, GABPA (GABP alpha);GABPB (GABP beta1L); assay: DNase I footprinting; 5 uM GABP; -146 de novo site and native site; 20 mM Tris-Cl pH 7.5, 5% glycerol, 5.2 mM MgCl2, 50 mM KCl, 1 mM TCEP, 20 nM oligo, 1 h room temperature; EMSA on 4% native PAGE, 0.5x TBE, 4 C

B1: TERTp WT 90 (dsDNA)
DNA 1: ACCCCGCCCCGTCCCGACCCCTCCCGGGTCCCCGGCCCAGCCCCCTCCGGGCCCTCCCAGCCCCTCCCCTTCCTTTCCGCGGCCCCGCCC
DNA 2: GGGCGGGGCCGCGGAAAGGAAGGGGAGGGGCTGGGAGGGCCCGGAGGGGGCTGGGCCGGGGACCCGGGAGGGGTCGGGACGGGGCGGGGT
binding result [1]: binds

B2: TERTp -124 mutant 90 (C228T) (dsDNA)
DNA 1: ACCCCGCCCCGTCCCGACCCCTCCCGGGTCCCCGGCCCAGCCCCTTCCGGGCCCTCCCAGCCCCTCCCCTTCCTTTCCGCGGCCCCGCCC
DNA 2: GGGCGGGGCCGCGGAAAGGAAGGGGAGGGGCTGGGAGGGCCCGGAAGGGGCTGGGCCGGGGACCCGGGAGGGGTCGGGACGGGGCGGGGT
binding result [2]: binds

B3: TERTp -146 mutant 90 (C250T) (dsDNA)
DNA 1: ACCCCGCCCCGTCCCGACCCCTTCCGGGTCCCCGGCCCAGCCCCCTCCGGGCCCTCCCAGCCCCTCCCCTTCCTTTCCGCGGCCCCGCCC
DNA 2: GGGCGGGGCCGCGGAAAGGAAGGGGAGGGGCTGGGAGGGCCCGGAGGGGGCTGGGCCGGGGACCCGGAAGGGGTCGGGACGGGGCGGGGT
binding result [3]: binds
